According to IntAct's records for PubMed 20802536:

B1: Frizzled-4 (Homo sapiens), Q9ULV1 (parent)
chain: MAWRGAGPSVPGAPGGVGLSLGLLLQLLLLLGPARGFGDEEERRCDPIRISMCQNLGYNVTKMPNLVGHELQTDAELQLTTFTPLIQYGCSSQLQFFLCSVYVPMCTEKINIPIGPCGGMCLSVKRRCEPVLKEFGFAWPESLNCSKFPPQNDHNHMCMEGPGDEEVPLPHKTPIQPGEECHSVGTNSDQYIWVKRSLNCVLKCGYDAGLYSRSAKEFTDIWMAVWASLCFISTAFTVLTFLIDSSRFSYPERPIIFLSMCYNIYSIAYIVRLTVGRERISCDFEEAAEPVLIQEGLKNTGCAIIFLLMYFFGMASSIWWVILTLTWFLAAGLKWGHEAIEMHSSYFHIAAWAIPAVKTIVILIMRLVDADELTGLCYVGNQNLDALTGFVVAPLFTYLVIGTLFIAAGLVALFKIRSNLQKDGTKTDKLERLMVKIGVFSVLYTVPATCVIACYFYEISNWALFRYSADDSNMAVEMLKIFMSLLVGITSGMWIWSAKTLHTWQKCSNRLVNSGKVKREKRGNGWVKPGKGSETVV
partner: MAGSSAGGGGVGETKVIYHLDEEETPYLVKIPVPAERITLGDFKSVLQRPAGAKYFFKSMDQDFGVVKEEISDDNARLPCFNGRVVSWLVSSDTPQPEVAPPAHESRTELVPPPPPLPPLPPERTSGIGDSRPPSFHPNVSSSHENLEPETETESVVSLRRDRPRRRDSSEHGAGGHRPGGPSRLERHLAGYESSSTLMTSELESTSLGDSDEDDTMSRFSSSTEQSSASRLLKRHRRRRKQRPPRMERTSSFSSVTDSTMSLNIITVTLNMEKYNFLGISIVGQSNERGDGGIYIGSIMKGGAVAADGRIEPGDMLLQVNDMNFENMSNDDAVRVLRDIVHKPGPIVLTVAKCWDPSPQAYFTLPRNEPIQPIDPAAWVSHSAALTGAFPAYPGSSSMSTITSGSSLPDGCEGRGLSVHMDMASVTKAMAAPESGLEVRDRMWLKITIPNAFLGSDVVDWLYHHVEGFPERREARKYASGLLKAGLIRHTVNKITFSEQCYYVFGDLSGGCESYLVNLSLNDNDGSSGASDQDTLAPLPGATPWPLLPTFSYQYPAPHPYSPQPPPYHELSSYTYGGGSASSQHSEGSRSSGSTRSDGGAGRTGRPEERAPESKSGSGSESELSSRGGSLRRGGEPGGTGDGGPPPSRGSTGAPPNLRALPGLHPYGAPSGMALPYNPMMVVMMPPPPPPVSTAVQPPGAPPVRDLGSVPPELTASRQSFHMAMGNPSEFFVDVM
B2: Frizzled-4 (Homo sapiens), Q9ULV1 (parent)
chain: B1 chain
partner: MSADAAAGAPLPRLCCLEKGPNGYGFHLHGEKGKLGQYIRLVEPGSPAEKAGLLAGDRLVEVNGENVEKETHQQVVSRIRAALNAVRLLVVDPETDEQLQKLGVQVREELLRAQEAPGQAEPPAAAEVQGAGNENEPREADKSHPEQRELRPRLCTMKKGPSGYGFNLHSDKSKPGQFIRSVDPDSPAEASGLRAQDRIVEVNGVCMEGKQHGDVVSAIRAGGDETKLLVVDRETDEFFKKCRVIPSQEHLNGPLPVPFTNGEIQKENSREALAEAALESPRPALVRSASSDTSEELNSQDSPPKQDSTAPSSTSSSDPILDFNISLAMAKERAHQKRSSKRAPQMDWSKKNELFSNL

Variants of: B1
Conditions: with dvl2_mouse Dvl2, Q60838

effect of a mutation on the interaction | Variant
decreasing interaction | MAWRGAGPSVPGAPGGVGLSLGLLLQLLLLLGPARGFGDEEERRCDPIRISMCQNLGYNVTKMPNLVGHELQTDAELQLTTFTPLIQYGCSSQLQFFLCSVYVPMCTEKINIPIGPCGGMCLSVKRRCEPVLKEFGFAWPESLNCSKFPPQNDHNHMCMEGPGDEEVPLPHKTPIQPGEECHSVGTNSDQYIWVKRSLNCVLKCGYDAGLYSRSAKEFTDIWMAVWASLCFISTAFTVLTFLIDSSRFSYPERPIIFLSMCYNIYSIAYIVRLTVGRERISCDFEEAAEPVLIQEGLKNTGCAIIFLLMYFFGMASSIWWVILTLTWFLAAGLKWGHEAIEMHSSYFHIAAWAIPAVKTIVILIMRLVDADELTGLCYVGNQNLDALTGFVVAPLFTYLVIGTLFIAAGLVALFKIRSNLQKDGTKTDKLERLMVKIGVFSVLYTVPATCVIACYFYEISNWALFRYSADDSNMAVEMLKIFMSLLVGITSGMWIWSAKTLHTWQKCSNRLVNSGKVKREKRGNGWVKPGKGSETVA [V537A]

Variants of: B2
Conditions: with nhrf1_human NHERF1, O14745

effect of a mutation on the interaction | Variant
decreasing interaction | MAWRGAGPSVPGAPGGVGLSLGLLLQLLLLLGPARGFGDEEERRCDPIRISMCQNLGYNVTKMPNLVGHELQTDAELQLTTFTPLIQYGCSSQLQFFLCSVYVPMCTEKINIPIGPCGGMCLSVKRRCEPVLKEFGFAWPESLNCSKFPPQNDHNHMCMEGPGDEEVPLPHKTPIQPGEECHSVGTNSDQYIWVKRSLNCVLKCGYDAGLYSRSAKEFTDIWMAVWASLCFISTAFTVLTFLIDSSRFSYPERPIIFLSMCYNIYSIAYIVRLTVGRERISCDFEEAAEPVLIQEGLKNTGCAIIFLLMYFFGMASSIWWVILTLTWFLAAGLKWGHEAIEMHSSYFHIAAWAIPAVKTIVILIMRLVDADELTGLCYVGNQNLDALTGFVVAPLFTYLVIGTLFIAAGLVALFKIRSNLQKDGTKTDKLERLMVKIGVFSVLYTVPATCVIACYFYEISNWALFRYSADDSNMAVEMLKIFMSLLVGITSGMWIWSAKTLHTWQKCSNRLVNSGKVKREKRGNGWVKPGKGSETVA [V537A]
